Assay results reported in the Human Domainome abundance scans (Beltran et al. 2025).
± gives the uncertainty stated by the source.

Assay: abundance fitness (aPCA) (normalised: wild type 0, dead -1); higher = more abundant; growth selection in yeast, the domain comes from the species named
Settings: Homo sapiens

| Substance | abundance fitness |
| --- | --- |
| Transcriptional activator Myb L172M, P10242 | -0.175 ± 0.09 |
| Transcriptional activator Myb L172N, P10242 | -0.34 ± 0.14 |
| Transcriptional activator Myb L172P, P10242 | -0.486 ± 0.19 |
| Transcriptional activator Myb L172Q, P10242 | -0.117 ± 0.1 |
| Transcriptional activator Myb L172R, P10242 | -0.279 ± 0.056 |
| Transcriptional activator Myb L172S, P10242 | -0.236 ± 0.085 |
| Transcriptional activator Myb L172T, P10242 | -0.359 ± 0.11 |
| Transcriptional activator Myb L172V, P10242 | -0.36 ± 0.073 |
| Transcriptional activator Myb L172W, P10242 | -0.303 ± 0.089 |
| Transcriptional activator Myb L173A, P10242 | -0.623 ± 0.11 |
| Transcriptional activator Myb L173C, P10242 | 0.012 ± 0.12 |
| Transcriptional activator Myb L173D, P10242 | -0.958 ± 0.22 |
| Transcriptional activator Myb L173E, P10242 | -0.621 ± 0.088 |
| Transcriptional activator Myb L173G, P10242 | -1.08 ± 0.11 |
| Transcriptional activator Myb L173I, P10242 | 0.253 ± 0.44 |
| Transcriptional activator Myb L173M, P10242 | -0.305 ± 0.12 |
| Transcriptional activator Myb L173P, P10242 | -0.656 ± 0.23 |
| Transcriptional activator Myb L173Q, P10242 | -1.13 ± 0.25 |
| Transcriptional activator Myb L173R, P10242 | -0.961 ± 0.078 |
| Transcriptional activator Myb L173S, P10242 | -0.933 ± 0.11 |
| Transcriptional activator Myb L173T, P10242 | -0.28 ± 0.12 |
| Transcriptional activator Myb L173V, P10242 | -0.127 ± 0.093 |

| Substance | abundance fitness |
| --- | --- |
| Transcriptional activator Myb L173W, P10242 | -0.968 ± 0.11 |
| Transcriptional activator Myb L173Y, P10242 | -0.627 ± 0.31 |
| Transcriptional activator Myb L199A, P10242 | -0.05 ± 0.062 |
| Transcriptional activator Myb L199C, P10242 | -0.076 ± 0.1 |
| Transcriptional activator Myb L199D, P10242 | 0.011 ± 0.12 |
| Transcriptional activator Myb L199E, P10242 | -0.005 ± 0.081 |
| Transcriptional activator Myb L199F, P10242 | -0.179 ± 0.097 |
| Transcriptional activator Myb L199H, P10242 | -0.228 ± 0.2 |
| Transcriptional activator Myb L199I, P10242 | -0.056 ± 0.1 |
| Transcriptional activator Myb L199K, P10242 | 0.025 ± 0.083 |
| Transcriptional activator Myb L199M, P10242 | -0.071 ± 0.095 |
| Transcriptional activator Myb L199N, P10242 | 0.043 ± 0.14 |
| Transcriptional activator Myb L199P, P10242 | -0.013 ± 0.1 |
| Transcriptional activator Myb L199Q, P10242 | -0.152 ± 0.12 |
| Transcriptional activator Myb L199R, P10242 | -0.045 ± 0.057 |
| Transcriptional activator Myb L199S, P10242 | 0.041 ± 0.068 |
| Transcriptional activator Myb L199T, P10242 | -0.043 ± 0.092 |
| Transcriptional activator Myb L199V, P10242 | 0.032 ± 0.065 |
| Transcriptional activator Myb L199W, P10242 | -0.167 ± 0.1 |
| Transcriptional activator Myb L199Y, P10242 | -0.175 ± 0.21 |
| Transcriptional activator Myb M189A, P10242 | -0.343 ± 0.068 |
| Transcriptional activator Myb M189C, P10242 | -0.311 ± 0.095 |

| Substance | abundance fitness |
| --- | --- |
| Transcriptional activator Myb M189D, P10242 | -0.384 ± 0.094 |
| Transcriptional activator Myb M189F, P10242 | -0.045 ± 0.16 |
| Transcriptional activator Myb M189G, P10242 | -0.268 ± 0.05 |
| Transcriptional activator Myb M189I, P10242 | -0.313 ± 0.19 |
| Transcriptional activator Myb M189K, P10242 | 0.038 ± 0.14 |
| Transcriptional activator Myb M189L, P10242 | 0.073 ± 0.083 |
| Transcriptional activator Myb M189N, P10242 | -0.155 ± 0.14 |
| Transcriptional activator Myb M189P, P10242 | -0.386 ± 0.17 |
| Transcriptional activator Myb M189R, P10242 | -0.303 ± 0.064 |
| Transcriptional activator Myb M189S, P10242 | -0.303 ± 0.065 |
| Transcriptional activator Myb M189T, P10242 | -0.181 ± 0.085 |
| Transcriptional activator Myb M189V, P10242 | -0.02 ± 0.064 |
| Transcriptional activator Myb M189W, P10242 | -0.36 ± 0.093 |
| Transcriptional activator Myb M189Y, P10242 | -0.535 ± 0.15 |
| Transcriptional activator Myb N179A, P10242 | 0.001 ± 0.053 |
| Transcriptional activator Myb N179C, P10242 | -0.022 ± 0.088 |
| Transcriptional activator Myb N179E, P10242 | 0.016 ± 0.069 |
| Transcriptional activator Myb N179F, P10242 | -0.027 ± 0.12 |
| Transcriptional activator Myb N179G, P10242 | 0.004 ± 0.041 |
| Transcriptional activator Myb N179H, P10242 | -0.04 ± 0.094 |
| Transcriptional activator Myb N179I, P10242 | 0.127 ± 0.14 |
| Transcriptional activator Myb N179L, P10242 | 0.029 ± 0.059 |

| Substance | abundance fitness |
| --- | --- |
| Transcriptional activator Myb N179P, P10242 | -0.489 ± 0.097 |
| Transcriptional activator Myb N179Q, P10242 | -0.025 ± 0.078 |
| Transcriptional activator Myb N179S, P10242 | -0.075 ± 0.061 |
| Transcriptional activator Myb N179T, P10242 | 0.026 ± 0.075 |
| Transcriptional activator Myb N179W, P10242 | -0.169 ± 0.066 |
| Transcriptional activator Myb N179Y, P10242 | -0.075 ± 0.1 |
| Transcriptional activator Myb N183A, P10242 | 0.037 ± 0.094 |
| Transcriptional activator Myb N183C, P10242 | -0.203 ± 0.12 |
| Transcriptional activator Myb N183D, P10242 | 0.142 ± 0.18 |
| Transcriptional activator Myb N183E, P10242 | 0.011 ± 0.098 |
| Transcriptional activator Myb N183F, P10242 | -0.176 ± 0.14 |
| Transcriptional activator Myb N183G, P10242 | -0.067 ± 0.063 |
| Transcriptional activator Myb N183H, P10242 | 0.141 ± 0.17 |
| Transcriptional activator Myb N183I, P10242 | -0.022 ± 0.11 |
| Transcriptional activator Myb N183K, P10242 | -0.192 ± 0.099 |
| Transcriptional activator Myb N183L, P10242 | -0.074 ± 0.084 |
| Transcriptional activator Myb N183M, P10242 | 0.068 ± 0.11 |
| Transcriptional activator Myb N183P, P10242 | -1.09 ± 0.14 |
| Transcriptional activator Myb N183Q, P10242 | -0.094 ± 0.13 |
| Transcriptional activator Myb N183R, P10242 | -0.153 ± 0.051 |
| Transcriptional activator Myb N183S, P10242 | -0.019 ± 0.085 |
| Transcriptional activator Myb N183T, P10242 | 0.101 ± 0.086 |

| Substance | abundance fitness |
| --- | --- |
| Transcriptional activator Myb N183W, P10242 | -0.198 ± 0.084 |
| Transcriptional activator Myb N183Y, P10242 | -0.343 ± 0.1 |
| Transcriptional activator Myb N186A, P10242 | -0.081 ± 0.07 |
| Transcriptional activator Myb N186C, P10242 | -0.028 ± 0.089 |
| Transcriptional activator Myb N186E, P10242 | 0.037 ± 0.079 |
| Transcriptional activator Myb N186F, P10242 | -0.055 ± 0.13 |
| Transcriptional activator Myb N186G, P10242 | -0.162 ± 0.055 |
| Transcriptional activator Myb N186H, P10242 | -0.139 ± 0.19 |
| Transcriptional activator Myb N186I, P10242 | 0.027 ± 0.1 |
| Transcriptional activator Myb N186K, P10242 | 0.065 ± 0.1 |
| Transcriptional activator Myb N186L, P10242 | -0.016 ± 0.071 |
| Transcriptional activator Myb N186M, P10242 | -0.007 ± 0.11 |
| Transcriptional activator Myb N186P, P10242 | -0.804 ± 0.14 |
| Transcriptional activator Myb N186R, P10242 | -0.047 ± 0.059 |
| Transcriptional activator Myb N186S, P10242 | -0.062 ± 0.062 |
| Transcriptional activator Myb N186V, P10242 | -0.017 ± 0.072 |
| Transcriptional activator Myb N186Y, P10242 | -0.154 ± 0.15 |
| Transcriptional activator Myb P174A, P10242 | -0.359 ± 0.066 |
| Transcriptional activator Myb P174C, P10242 | -0.239 ± 0.15 |
| Transcriptional activator Myb P174D, P10242 | -0.224 ± 0.1 |
